Measurements from US20090098111A1.

Target: Xatr-XatripΔN222-FLAG complex (Xenopus laevis)
Experiment: cell-based or functional assay

Chain of Xatr-XatripΔN222-FLAG complex (Xenopus laevis) (Q5EGL8 whole entry, stated change not applied, one chain of several): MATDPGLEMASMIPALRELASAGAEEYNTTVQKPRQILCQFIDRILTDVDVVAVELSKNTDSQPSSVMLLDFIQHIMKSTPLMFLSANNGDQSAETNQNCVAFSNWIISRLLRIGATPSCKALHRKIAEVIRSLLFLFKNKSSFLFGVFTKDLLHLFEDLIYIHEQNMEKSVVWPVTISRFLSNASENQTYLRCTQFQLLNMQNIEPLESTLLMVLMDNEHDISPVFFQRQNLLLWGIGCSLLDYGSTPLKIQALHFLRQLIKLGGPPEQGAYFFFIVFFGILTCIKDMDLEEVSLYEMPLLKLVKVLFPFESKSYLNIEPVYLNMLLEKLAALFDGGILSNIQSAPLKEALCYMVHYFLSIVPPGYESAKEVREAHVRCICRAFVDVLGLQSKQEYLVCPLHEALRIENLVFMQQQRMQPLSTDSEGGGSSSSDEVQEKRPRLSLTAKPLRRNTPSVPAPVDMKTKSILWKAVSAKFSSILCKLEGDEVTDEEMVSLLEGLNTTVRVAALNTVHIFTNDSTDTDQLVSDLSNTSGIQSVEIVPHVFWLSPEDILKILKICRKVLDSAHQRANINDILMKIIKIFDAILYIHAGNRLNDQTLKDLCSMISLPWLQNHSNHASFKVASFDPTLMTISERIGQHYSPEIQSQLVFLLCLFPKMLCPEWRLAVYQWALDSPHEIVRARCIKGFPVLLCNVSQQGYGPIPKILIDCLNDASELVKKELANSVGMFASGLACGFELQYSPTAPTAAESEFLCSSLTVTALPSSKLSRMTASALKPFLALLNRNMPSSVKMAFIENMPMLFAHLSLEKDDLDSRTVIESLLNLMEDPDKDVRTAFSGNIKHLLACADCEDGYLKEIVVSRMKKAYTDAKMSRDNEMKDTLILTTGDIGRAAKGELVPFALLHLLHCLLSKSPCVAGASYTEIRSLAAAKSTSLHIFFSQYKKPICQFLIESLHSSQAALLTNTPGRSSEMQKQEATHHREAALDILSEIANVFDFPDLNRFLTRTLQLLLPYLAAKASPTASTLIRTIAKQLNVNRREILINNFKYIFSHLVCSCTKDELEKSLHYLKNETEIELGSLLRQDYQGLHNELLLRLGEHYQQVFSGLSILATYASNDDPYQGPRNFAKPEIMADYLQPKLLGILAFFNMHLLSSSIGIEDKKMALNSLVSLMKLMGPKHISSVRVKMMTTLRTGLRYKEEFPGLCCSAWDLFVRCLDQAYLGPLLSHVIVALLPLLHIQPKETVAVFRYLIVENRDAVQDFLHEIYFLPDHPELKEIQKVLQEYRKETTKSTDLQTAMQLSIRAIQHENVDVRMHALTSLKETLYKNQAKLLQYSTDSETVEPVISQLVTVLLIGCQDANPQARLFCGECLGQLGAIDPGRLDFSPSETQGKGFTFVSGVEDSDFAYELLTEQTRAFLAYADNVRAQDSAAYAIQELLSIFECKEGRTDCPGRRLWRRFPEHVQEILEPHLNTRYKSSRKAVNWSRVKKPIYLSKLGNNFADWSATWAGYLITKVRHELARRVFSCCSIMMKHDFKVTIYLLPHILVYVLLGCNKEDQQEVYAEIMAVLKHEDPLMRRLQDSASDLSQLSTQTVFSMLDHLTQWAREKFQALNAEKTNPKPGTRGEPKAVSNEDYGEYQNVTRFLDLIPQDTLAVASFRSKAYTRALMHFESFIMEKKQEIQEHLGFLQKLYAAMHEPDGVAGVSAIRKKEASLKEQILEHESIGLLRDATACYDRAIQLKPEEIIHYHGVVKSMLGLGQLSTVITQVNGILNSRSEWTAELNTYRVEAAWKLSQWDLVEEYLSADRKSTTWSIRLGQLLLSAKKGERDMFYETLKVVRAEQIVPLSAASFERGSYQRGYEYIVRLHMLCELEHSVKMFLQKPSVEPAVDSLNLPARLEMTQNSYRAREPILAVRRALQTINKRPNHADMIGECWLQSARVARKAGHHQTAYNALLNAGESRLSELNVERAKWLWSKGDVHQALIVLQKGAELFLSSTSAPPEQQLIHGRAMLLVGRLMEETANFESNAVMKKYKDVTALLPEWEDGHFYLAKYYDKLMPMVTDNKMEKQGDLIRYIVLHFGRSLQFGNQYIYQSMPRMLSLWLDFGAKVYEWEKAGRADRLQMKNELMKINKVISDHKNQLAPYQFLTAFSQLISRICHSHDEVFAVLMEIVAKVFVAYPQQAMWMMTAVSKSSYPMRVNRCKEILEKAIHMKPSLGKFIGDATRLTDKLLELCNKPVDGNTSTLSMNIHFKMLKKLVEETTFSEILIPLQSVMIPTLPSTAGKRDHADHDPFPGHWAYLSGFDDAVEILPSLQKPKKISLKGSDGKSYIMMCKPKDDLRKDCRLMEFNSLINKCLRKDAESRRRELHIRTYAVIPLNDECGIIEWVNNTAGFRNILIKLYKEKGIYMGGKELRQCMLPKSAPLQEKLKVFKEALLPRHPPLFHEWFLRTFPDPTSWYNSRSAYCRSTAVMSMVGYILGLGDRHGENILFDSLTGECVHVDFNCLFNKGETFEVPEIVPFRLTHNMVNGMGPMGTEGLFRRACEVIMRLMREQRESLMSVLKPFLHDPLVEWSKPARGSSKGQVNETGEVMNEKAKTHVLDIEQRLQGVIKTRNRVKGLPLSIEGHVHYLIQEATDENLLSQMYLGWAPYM

Substance: His6-XtopBP1 (full-length) (from UniProt Q800K6 1-1513)
- half-maximal induction of kinase activity: 10 to 15 µg/mL
